Molecular target: Fc neonatal receptor (FcRn) (human (endogenous in HEC-1A)) (UniProt P55899)
Chain of UniProt P55899 (P55899 whole entry, looked up, tested part not stated): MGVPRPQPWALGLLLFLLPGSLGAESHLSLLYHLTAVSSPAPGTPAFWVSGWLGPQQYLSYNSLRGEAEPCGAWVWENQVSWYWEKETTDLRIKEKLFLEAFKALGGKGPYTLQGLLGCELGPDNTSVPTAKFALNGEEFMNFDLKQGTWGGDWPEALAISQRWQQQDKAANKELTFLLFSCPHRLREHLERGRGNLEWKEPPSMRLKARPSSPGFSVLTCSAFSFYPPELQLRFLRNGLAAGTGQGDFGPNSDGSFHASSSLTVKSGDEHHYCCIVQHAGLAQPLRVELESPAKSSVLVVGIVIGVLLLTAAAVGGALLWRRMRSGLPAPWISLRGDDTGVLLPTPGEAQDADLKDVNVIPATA

Substance: mAb VRC01, IgG1 (antibody)
- transcytosis of IgG alone (50 µg/ml) across HEC-1A cells, IgG in subnatant fluid by ELISA after 12 hours; about 0.4% at pH 7.4: 1.3%

Source: paper PMC3836734
